Measurements from the supplement of paper PMC5998384.

Experiments:
HeLa Kyoto [1] = test: solubility in G1/S (NP-40 vs SDS abundance) (log2 ratio); higher = more soluble; settings: cell cycle stage: G1/S
HeLa Kyoto [2] = test: melting temperature (median over replicates), in situ; higher = more thermally stable
HeLa Kyoto [3] = test: solubility change mitosis vs G1/S (difference of NP-40 vs SDS log2 ratios) (log2 ratio difference); higher = more soluble in mitosis
HeLa Kyoto [4] = test: thermal stability score vs G1/S (z-score of summed log2 fold changes over temperatures); higher = more thermally stable than in G1/S
[5] = cell cycle stage: early G1 (4.5 h after nocodazole release)
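Throughout, for melting temperature (median over replicates), in situ: HeLa Kyoto cells synchronized by double thymidine or nocodazole block, proteins quantified by TMT10plex mass spectrometry, three independent biological replicates.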
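Throughout, for solubility change mitosis vs G1/S (difference of NP-40 vs SDS log2 ratios): synchronized HeLa Kyoto cells (double thymidine block for G1/S, nocodazole release for mitosis), protein amounts in NP-40 versus SDS lysates quantified by mass spectrometry, three biological replicates.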
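Throughout, for solubility in G1/S (NP-40 vs SDS abundance): HeLa Kyoto cells arrested at G1/S by double thymidine block, proteins quantified by TMT10plex mass spectrometry in mild NP-40 versus SDS extracts, three biological replicates.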
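Throughout, for thermal stability score vs G1/S (z-score of summed log2 fold changes over temperatures): synchronized HeLa Kyoto cells, proteins quantified by TMT10plex mass spectrometry, three biological replicates, mitosis taken 0.5 h after nocodazole release, G1/S directly after double thymidine block.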

Row | Sequence | solubility in G1/S (log2) (HeLa Kyoto [1]) | melting temperature (HeLa Kyoto [2]; cell cycle stage: G1/S) | melting temperature (HeLa Kyoto [2]; cell cycle stage: mitosis) | solubility change mitosis (log2) (HeLa Kyoto [3]) | thermal stability score (HeLa Kyoto [4]; [5]) | thermal stability score (HeLa Kyoto [4]; cell cycle stage: mitosis)
1 | MAAAAAAGPSPGSGPGDSPEGPEGEAPERRRKAHGMLKLYYGLSEGEAAGRPAGPDPLDPTDLNGAHFDPEVYLDKLRRECPLAQLMDSETDMVRQIRALDSDMQTLVYENYNKFISATDTIRKMKNDFRKMEDEMDRLATNMAVITDFSARISATLQDRHERITKLAGVHALLRKLQFLFELPSRLTKCVELGAYGQAVRYQGRAQAVLQQYQHLPSFRAIQDDCQVITARLAQQLRQRFREGGSGAPEQAECVELLLALGEPAEELCEEFLAHARGRLEKELRNLEAELGPSPPAPDVLEFTDHGGSGFVGGLCQVAAAYQELFAAQGPAGAEKLAAFARQLGSRYFALVERRLAQEQGGGDNSLLVRALDRFHRRLRAPGALLAAAGLADAATEIVERVARERLGHHLQGLRAAFLGCLTDVRQALAAPRVAGKEGPGLAELLANVASSILSHIKASLAAVHLFTAKEVSFSNKPYFRGEFCSQGVREGLIVGFVHSMCQTAQSFCDSPGEKGGATPPALLLLLSRLCLDYETATISYILTLTDEQFLVQDQFPVTPVSTLCAEARETARRLLTHYVKVQGLVISQMLRKSVETRDWLSTLEPRNVRAVMKRVVEDTTAIDVQVGLLYEEGVRKAQSSDSSKRTFSVYSSSRQQGRYAPSYTPSAPMDTNLLSNIQKLFSERIDVFSPVEFNKVSVLTGIIKISLKTLLECVRLRTFGRFGLQQVQVDCHFLQLYLWRFVADEELVHLLLDEVVASAALRCPDPVPMEPSVVEVICERG [VPS51] | 0.0503 | 49.3 °C | 49.3 °C | -0.137 | 0.245 | 0.774
2 | MAAALGASGGAGAGDDDFDQFDKPGAERSWRRRAADEDWDSELEDDLLGEDLLSGKKNQSDLSDEELNDDLLQSDNEDEENFSSQGVTISLNATSGMVTSFELSDNTNDQSGEQESEYEQEQGEDELVYHKSDGSELYTQEYPEEGQYEGHEAELTEDQIEYVEEPEEEQLYTDEVLDIEINEPLDEFTGGMETLELQKDIKEESDEEEEDDEESGRLRFKTERKEGTIIRLSDVTRERRNIPETLELSAEAKAALLEFEERERQHKQGRYSSRRGGRRGGPLMCRGVGDQRRESTERGRMKDHRPALLPTQPPVVPQAPPPPPPPPQQQPIRSLFQPQPLQPLLPVQHPHHPSPPQGMHMPPQLETPRMMMTPPPVTPQQPKNIHINPHFKGTVVTPVQVPLLPVPSQPRPAVGPQRFPGPPEFPQHTPGPVPNSFSQPPRLPLQDQWRAPPPPQDRDPFFLGVSGEPRFPSHLFLEQRSPPPPPPPPTLLNSSHPVPTQSPLPFTQPGPAFNQQGQQPVFPRERPVRPALQPPGPVGILHFSQPGSATTRPFIPPRQPFLPGPGQPFLPTHTQPNLQGPLHPPLPPPHQPQPQQPQQQPPPQHQPPHQPPHQPPPQHQPPPQHPPQHPPQHQHHHHHHHLSVPPPPLMPMSQPQFRPHVQTAQPQASSSRMQCPQRQGLRHNTTSQNVSKRPMQQMQPTAPRNSNLRELPIAPSHVIEMSSSRCSATPSAQVKPIVSASPPSRAVAGSRSSQGKTEVKVKPASPVAQPKEEAKTETEFPDEDEETRLYRLKIEEQKRLREEILKQKELRRQQQAGARKKELLERLAQQQQQLYAPPPPAEQEEQALSPSPTNGNPLLPFPGAQVRQNVKNRLLVKNQDVSISNVQPKTSNFVPSSANMQYQGQQMKALKHLRQTRTVPQSQTQPLHKVLPIKPADVEEPAVPQTPRVASIQGRPQDTKPGVKRTVTHRTNSGGGDGPHISSKVRVIKLSGGGGESDGFFHPEGQPQRLPQPPEVGPQPARKVTLTRGGLQQPPHLPAGPHAHSPVPPGIKSIQGIHPAKKAIMHGRGRGVAGPMGRGRLMPNKQNLRVVECKPQPCVVSVEGLSSSTTDAQLKSLLMSVGPIQSLQMLPQQRKAIAKFKEPAHALAFQQKFHRHMIDLSHINVALIVE [RBM33] | -0.022 | 48.8 °C | 50.8 °C | -0.145 | 0.706 | 2.36
3 | MNIDDKLEGLFLKCGGIDEMQSSRTMVVMGGVSGQSTVSGELQDSVLQDRSMPHQEILAADEVLQESEMRQQDMISHDELMVHEETVKNDEEQMETHERLPQGLQYALNVPISVKQEITFTDVSEQLMRDKKQIREPVDLQKKKKRKQRSPAKILTINEDGSLGLKTPKSHVCEHCNAAFRTNYHLQRHVFIHTGEKPFQCSQCDMRFIQKYLLQRHEKIHTGEKPFRCDECGMRFIQKYHMERHKRTHSGEKPYQCEYCLQYFSRTDRVLKHKRMCHENHDKKLNRCAIKGGLLTSEEDSGFSTSPKDNSLPKKKRQKTEKKSSGMDKESALDKSDLKKDKNDYLPLYSSSTKVKDEYMVAEYAVEMPHSSVGGSHLEDASGEIHPPKLVLKKINSKRSLKQPLEQNQTISPLSTYEESKVSKYAFELVDKQALLDSEGNADIDQVDNLQEGPSKPVHSSTNYDDAMQFLKKKRYLQAASNNSREYALNVGTIASQPSVTQAAVASVIDESTTASILESQALNVEIKSNHDKNVIPDEVLQTLLDHYSHKANGQHEISFSVADTEVTSSISINSSEVPEVTPSENVGSSSQASSSDKANMLQEYSKFLQQALDRTSQNDAYLNSPSLNFVTDNQTLPNQPAFSSIDKQVYATMPINSFRSGMNSPLRTTPDKSHFGLIVGDSQHSFPFSGDETNHASATSTQDFLDQVTSQKKAEAQPVHQAYQMSSFEQPFRAPYHGSRAGIATQFSTANGQVNLRGPGTSAEFSEFPLVNVNDNRAGMTSSPDATTGQTFG [ZNF148] | -0.236 | 51.6 °C | 51.1 °C | 0.123 | 1.13 | -1.33
4 | MKKFFDSRREQGGSGLGSGSSGGGGSTSGLGSGYIGRVFGIGRQQVTVDEVLAEGGFAIVFLVRTSNGMKCALKRMFVNNEHDLQVCKREIQIMRDLSGHKNIVGYIDSSINNVSSGDVWEVLILMDFCRGGQVVNLMNQRLQTGFTENEVLQIFCDTCEAVARLHQCKTPIIHRDLKVENILLHDRGHYVLCDFGSATNKFQNPQTEGVNAVEDEIKKYTTLSYRAPEMVNLYSGKIITTKADIWALGCLLYKLCYFTLPFGESQVAICDGNFTIPDNSRYSQDMHCLIRYMLEPDPDKRPDIYQVSYFSFKLLKKECPIPNVQNSPIPAKLPEPVKASEAAAKKTQPKARLTDPIPTTETSIAPRQRPKAGQTQPNPGILPIQPALTPRKRATVQPPPQAAGSSNQPGLLASVPQPKPQAPPSQPLPQTQAKQPQAPPTPQQTPSTQAQGLPAQAQATPQHQQQLFLKQQQQQQQPPPAQQQPAGTFYQQQQAQTQQFQAVHPATQKPAIAQFPVVSQGGSQQQLMQNFYQQQQQQQQQQQQQQLATALHQQQLMTQQAALQQKPTMAAGQQPQPQPAAAPQPAPAQEPAIQAPVRQQPKVQTTPPPAVQGQKVGSLTPPSSPKTQRAGHRRILSDVTHSAVFGVPASKSTQLLQAAAAEASLNKSKSATTTPSGSPRTSQQNVYNPSEGSTWNPFDDDNFSKLTAEELLNKDFAKLGEGKHPEKLGGSAESLIPGFQSTQGDAFATTSFSAGTAEKRKGGQTVDSGLPLLSVSDPFIPLQVPDAPEKLIEGLKSPDTSLLLPDLLPMTDPFGSTSDAVIEKADVAVESLIPGLEPPVPQRLPSQTESVTSNRTDSLTGEDSLLDCSLLSNPTTDLLEEFAPTAISAPVHKAAEDSNLISGFDVPEGSDKVAEDEFDPIPVLITKNPQGGHSRNSSGSSESSLPNLARSLLLVDQLIDL [AAK1] | 0.192 | 50.9 °C | 51.8 °C | -0.0894 | 0.691 | 0.746
5 | MEVPPPAPRSFLCRALCLFPRVFAAEAVTADSEVLEERQKRLPYVPEPYYPESGWDRLRELFGKDEQQRISKDLANICKTAATAGIIGWVYGGIPAFIHAKQQYIEQSQAEIYHNRFDAVQSAHRAATRGFIRYGWRWGWRTAVFVTIFNTVNTSLNVYRNKDALSHFVIAGAVTGSLFRINVGLRGLVAGGIIGALLGTPVGGLLMAFQKYSGETVQERKQKDRKALHELKLEEWKGRLQVTEHLPEKIESSLQEDEPENDAKKIEALLNLPRNPSVIDKQDKD [TIMMDC1] | -0.03 | 55.6 °C | 55.2 °C | 0.01 | -2.95 | -2.24
6 | MAPWPPKGLVPAMLWGLSLFLNLPGPIWLQPSPPPQSSPPPQPHPCHTCRGLVDSFNKGLERTIRDNFGGGNTAWEEENLSKYKDSETRLVEVLEGVCSKSDFECHRLLELSEELVESWWFHKQQEAPDLFQWLCSDSLKLCCPAGTFGPSCLPCPGGTERPCGGYGQCEGEGTRGGSGHCDCQAGYGGEACGQCGLGYFEAERNASHLVCSACFGPCARCSGPEESNCLQCKKGWALHHLKCVDIDECGTEGANCGADQFCVNTEGSYECRDCAKACLGCMGAGPGRCKKCSPGYQQVGSKCLDVDECETEVCPGENKQCENTEGGYRCICAEGYKQMEGICVKEQIPESAGFFSEMTEDELVVLQQMFFGIIICALATLAAKGDLVFTAIFIGAVAAMTGYWLSERSDRVLEGFIKGR [CRELD1] | -0.215 | 53.8 °C | 53 °C | -0.0647 | 0.91 | 1.48
